Tests used:
Test in all cases: pull-down; GST::LIC::6xHis (50 pmol) with 50 or 250 pmol adaptor and glutathione agarose, 1 h at 4°C, 150 μL of 50 mM HEPES, 100 mM NaCl, 5 mM DTT, pH 7.5, 0.1% Tween 20; Coomassie staining and immunoblot against Strep-tag II
Conditions in all cases: both partners purified
[1] = target: T1, SPDL1(2–359)::Strep-tag II (human, UniProt Q96EA4 2-359)
T1 construct: human Spindly (SPDL1), N-terminal region, residues 2-359; also called Spindly; source: E. coli BL21, purified (Ni-NTA, TEV cleavage, Strep-Tactin; dialysis or SEC); not shown: 6xHis::MBP, N-terminal, cleaved; Strep-tag II (after linker GSGSGR), C-terminal, kept
T1 sequence (looked up): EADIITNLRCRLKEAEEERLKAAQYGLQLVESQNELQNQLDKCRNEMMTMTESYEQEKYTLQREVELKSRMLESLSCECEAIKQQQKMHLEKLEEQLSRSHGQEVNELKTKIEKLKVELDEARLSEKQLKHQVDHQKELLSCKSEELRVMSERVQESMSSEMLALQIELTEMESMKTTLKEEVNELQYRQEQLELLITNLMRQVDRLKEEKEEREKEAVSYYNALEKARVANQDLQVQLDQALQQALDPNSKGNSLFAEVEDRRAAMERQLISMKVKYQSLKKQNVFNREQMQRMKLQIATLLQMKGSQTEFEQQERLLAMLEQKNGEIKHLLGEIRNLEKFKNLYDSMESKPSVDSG

[2] = target: T2, BICD2(2–422)::Strep-tag II (human, UniProt Q8TD16 2-422)
T2 construct: human bicaudal D homolog 2 (BICD2), N-terminal region, residues 2-422; also called bicaudal D homolog 2; source: E. coli BL21, purified (Ni-NTA, TEV cleavage, Strep-Tactin; dialysis or SEC); not shown: 6xHis::MBP, N-terminal, cleaved; Strep-tag II (after linker GSGSGR), C-terminal, kept
T2 sequence (Q8TD16 2-422): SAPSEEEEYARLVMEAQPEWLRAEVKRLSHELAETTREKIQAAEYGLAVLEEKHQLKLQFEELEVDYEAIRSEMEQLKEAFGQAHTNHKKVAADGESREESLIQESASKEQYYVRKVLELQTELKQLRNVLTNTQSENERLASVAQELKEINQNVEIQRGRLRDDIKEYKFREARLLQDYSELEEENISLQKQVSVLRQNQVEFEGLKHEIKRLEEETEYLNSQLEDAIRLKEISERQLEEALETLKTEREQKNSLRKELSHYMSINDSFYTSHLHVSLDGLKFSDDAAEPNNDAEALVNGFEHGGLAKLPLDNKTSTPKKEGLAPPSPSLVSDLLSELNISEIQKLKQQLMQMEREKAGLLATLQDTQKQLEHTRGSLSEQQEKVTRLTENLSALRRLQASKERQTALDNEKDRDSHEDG

[3] = target: T3, HOOK3(2–552)::Strep-tag II (human, UniProt Q86VS8 2-552)
T3 construct: human Hook homolog 3 (HOOK3), residues 2-552; used for the GST pull-downs; also called Hook homolog 3; source: E. coli Rosetta, purified (Ni-NTA, TEV cleavage, Strep-Tactin; dialysis or SEC); not shown: 6xHis::MBP, N-terminal, cleaved; Strep-tag II (after linker GSGSGR), C-terminal, kept
T3 sequence (looked up): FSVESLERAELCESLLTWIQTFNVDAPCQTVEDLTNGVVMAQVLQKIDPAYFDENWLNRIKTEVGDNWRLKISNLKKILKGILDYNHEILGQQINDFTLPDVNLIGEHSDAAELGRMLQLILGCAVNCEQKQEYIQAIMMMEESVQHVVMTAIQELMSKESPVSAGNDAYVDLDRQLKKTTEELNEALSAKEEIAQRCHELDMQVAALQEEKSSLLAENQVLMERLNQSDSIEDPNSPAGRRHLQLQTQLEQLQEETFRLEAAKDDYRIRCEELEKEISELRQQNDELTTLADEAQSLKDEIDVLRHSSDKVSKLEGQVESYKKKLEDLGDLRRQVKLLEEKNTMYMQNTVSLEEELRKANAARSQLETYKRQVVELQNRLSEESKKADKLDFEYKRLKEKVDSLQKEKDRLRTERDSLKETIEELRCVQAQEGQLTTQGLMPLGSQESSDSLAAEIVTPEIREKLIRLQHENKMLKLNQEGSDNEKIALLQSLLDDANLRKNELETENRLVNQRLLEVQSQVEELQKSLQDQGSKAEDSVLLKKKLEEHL

[4] = target: T4, RAB11FIP3(2–756)::Strep-tag II (human, UniProt O75154 2-756)
T4 construct: source: E. coli BL21, purified (Ni-NTA, TEV cleavage, Strep-Tactin; dialysis or SEC); not shown: 6xHis::MBP, N-terminal, cleaved; Strep-tag II (after linker GSGSGR), C-terminal, kept
T4 sequence (looked up): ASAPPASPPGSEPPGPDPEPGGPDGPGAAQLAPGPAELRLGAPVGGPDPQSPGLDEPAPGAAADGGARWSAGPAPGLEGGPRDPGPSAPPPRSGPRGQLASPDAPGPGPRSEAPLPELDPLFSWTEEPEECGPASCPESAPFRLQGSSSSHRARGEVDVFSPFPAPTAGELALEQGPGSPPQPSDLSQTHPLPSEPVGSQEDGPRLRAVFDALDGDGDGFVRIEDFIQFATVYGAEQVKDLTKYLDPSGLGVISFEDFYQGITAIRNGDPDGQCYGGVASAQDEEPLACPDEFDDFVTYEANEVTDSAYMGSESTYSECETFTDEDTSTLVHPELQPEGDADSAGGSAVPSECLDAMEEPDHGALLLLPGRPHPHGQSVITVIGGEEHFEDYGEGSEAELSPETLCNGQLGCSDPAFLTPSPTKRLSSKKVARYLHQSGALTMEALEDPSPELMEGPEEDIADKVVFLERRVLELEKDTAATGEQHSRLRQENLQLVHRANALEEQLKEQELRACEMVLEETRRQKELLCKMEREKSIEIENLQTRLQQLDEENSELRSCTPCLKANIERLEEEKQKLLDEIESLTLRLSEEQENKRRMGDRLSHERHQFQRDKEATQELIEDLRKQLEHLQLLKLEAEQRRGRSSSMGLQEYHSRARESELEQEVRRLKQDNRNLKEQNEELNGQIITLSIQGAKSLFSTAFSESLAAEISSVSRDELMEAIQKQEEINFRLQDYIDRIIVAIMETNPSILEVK

Measured: binding result

B1: GST::LIC2(375–450)::6xHis (domain or fragment, human)
chain: WATPTRASESPARGPSGSPRTQGRGGPASVPSSSPGTSVKKPDPNIKNNAASEGVLASFFNSLLSKKTGSPGSPGAG
notes: single N-terminal tryptophan added in the construct; source: E. coli BL21, purified (glutathione agarose, Ni-NTA; dialysis or SEC); not shown: GST, N-terminal, kept; 6xHis (after linker GSGSG), C-terminal, kept
binds: all assays above

B2: GST::LIC1(414–471)::6xHis (domain or fragment, human)
chain: WSSNVASVSPIPAGSKKIDPNMKAGATSEGVLANFFNSLLSKKTGSPGGPGVSGGSPAG
notes: single N-terminal tryptophan added in the construct; human dynein light intermediate chain 1 (DYNC1LI1), residues 414-471; source: E. coli BL21, purified (glutathione agarose, Ni-NTA; dialysis or SEC); not shown: GST, N-terminal, kept; 6xHis (after linker GSGSG), C-terminal, kept
binds: all assays above

B3: GST::LIC2(375–492)::6xHis (domain or fragment, human)
chain: WATPTRASESPARGPSGSPRTQGRGGPASVPSSSPGTSVKKPDPNIKNNAASEGVLASFFNSLLSKKTGSPGSPGAGGVQSTAKKSGQKTVLSNVQEELDRMTRKPDSMVTNSSTENEA
notes: single N-terminal tryptophan added in the construct; also called LIC2-C; source: E. coli BL21, purified (glutathione agarose, Ni-NTA; dialysis or SEC); not shown: GST, N-terminal, kept; 6xHis (after linker GSGSG), C-terminal, kept
binds: all assays above

B4: GST::LIC1(402–471)::6xHis (domain or fragment, human)
chain: WPGGSPRTPNRSVSSNVASVSPIPAGSKKIDPNMKAGATSEGVLANFFNSLLSKKTGSPGGPGVSGGSPAG
notes: single N-terminal tryptophan added in the construct; human dynein light intermediate chain 1 (DYNC1LI1), residues 402-471; source: E. coli BL21, purified (glutathione agarose, Ni-NTA; dialysis or SEC); not shown: GST, N-terminal, kept; 6xHis (after linker GSGSG), C-terminal, kept
binds: all assays above
